From patent publication US20260091143A1, “NEAR-INFRARED IMAGING AGENT AND USES THEREOF” (CASE WESTERN RESERVE UNIVERSITY, priority 2022, published 2026)
Where a SMILES comes first, the peptide text is derived from it. Where no end group is shown, it is not given here. The star is where a group is joined. X1 = CC1(C)C(/C=C/C=C/C=C/C=C2/N(CCCCCC(=O)*)c3ccc4ccccc4c3C2(C)C)=[N+](CCCCS(=O)(=O)[O-])c2ccc3ccccc3c21; Tide Fluor 8WS = fluorophore acid, coupled by amide to the N-terminal amine

Experiments:
[1] = Whole-body and ventral fluorescent imaging of biodistribution and clearance; type: in vivo, mice
Description: (§1) The IVIS Spectrum In vivo Imaging System and Living Image analysis software, (Perkin Elmer, Hopkinton, MA, USA) were used for acquisition and analysis of mouse images. Prior to the experiment, mice were weighed, and baseline images acquired using the appropriate filter sets and the autoexposure setting. Three filter sets for excitation/emission were used: 745 nm/800 nm, 745 nm/820 nm, 745 nm/840 nm. The filter set showing highest fluorescence intensity for a fluorophore was used throughout for that dye. For ICG, 745 nm/820 nm was used and for IRDye® 800CW and Tide Fluor™ 8WS, 745 nm/800 nm was used. Agent stocks were diluted in saline or PBS to ˜100 μM and the volume needed for the desired dose of 300 nmol/kg or 400 nmol/kg calculated. Doses were loaded into polyurethane tubing and connected to a 1 mL syringe as previously described. Mice were anesthetized in an induction chamber with 2% isoflurane-oxygen and moved onto a 37° C. heated platform with a nose cone. 26-gauge veterinary catheters were placed in each tail and the preloaded tubing was connected. Agents were injected over 30 sec, catheters were removed, and animals placed in the prepared Spectrum imaging chamber. Images were acquired beginning 10 min after injecting the agents. For SBK2-CCLE-IR800 and Scram-CCLE-IR800, images were acquired every 10 min for 60 min. For the ICG-labeled and TF8WS-labeled peptides, images were acquired at 10 min, 30 min, 1 h, 2 h, 4 h, 8 h, and 24 h. At the end of the imaging time, the animals were euthanized by CO2 asphyxiation, and the tumor and other organs excised and imaged on the Spectrum.

[2] = Ex vivo fluorescence in excised kidneys, spleen and liver; set-up: species or system mice; conditions: 24 h; for p-value, average radiant efficiency of excised kidney vs SBK2-ICG / p-value, average radiant efficiency of excised kidney vs Scram-CLE-ICG / p-value, average radiant efficiency of excised kidney vs Scram-ICG / p-value, average radiant efficiency of excised liver vs SBK2-ICG / p-value, average radiant efficiency of excised liver vs Scram-CLE-ICG / p-value, average radiant efficiency of excised liver vs Scram-ICG / p-value, average radiant efficiency of excised spleen vs SBK2-ICG / p-value, average radiant efficiency of excised spleen vs Scram-CLE-ICG / p-value, average radiant efficiency of excised spleen vs Scram-ICG / p-value, average radiant efficiency of excised kidney vs SBK2-CLE-ICG / p-value, average radiant efficiency of excised liver vs SBK2-CLE-ICG / p-value, average radiant efficiency of excised spleen vs SBK2-CLE-ICG: ICG-labeled agents 300 nmol/kg, ICG 400 nmol/kg, Welch's t-test
Description: as §1
(§2) Living Image analysis software was used for region of interest (ROI) analysis of the optical data. Images acquired for each time point consist of a fluorescent image superimposed on a photographic image. Binning was set to 1 and in vivo tumor ROIs were manually drawn based on contours visible in the black and white photograph for each timepoint. After outlining the tumor ROIs, fluorescence was measured with the built-in Spectrum function. For excised tumors, kidneys, spleen and liver, ROIs were drawn around the perimeter of the tumor or organ.
(§3) LivingImage software measures fluorescence intensity in units of radiant efficiency. For these analyses, average radiant efficiency measurements in (photons/s/cm^2/steradian)/(μW/cm^2) were used for further comparisons to account for differences in tumor and organ size. GraphPad Prism 9 was used for plots and statistical analyses. Where indicated, means for pairs of agents were compared using a two-tailed t-test with Welch's correction and statistical significance was assumed at p<0.05. Welch's correction was used to eliminate assumptions about variance between the groups being compared.

[3] = tested on: LN-229 glioma flank tumor; assay: In vivo fluorescent imaging of tumor signal in LN-229 flank tumor-bearing nude mice; conditions: 400 nmol/kg
Description: All applicable institutional and/or NIH guidelines for the care and use of animals were followed. The Case Western Reserve University Institutional Animal Care and Use Committee reviewed and approved the animal protocols. Outbred homozygous female nude mice (Fox1^nu/Fox1^nu) were purchased from Jackson Laboratory, Bar Harbor, ME, USA. Details of the human glioblastoma LN-229 cell line have been described previously. LN-229 cells express the PTPμ biomarker and have been used in previous studies for evaluating PTPμ-targeted agents using different imaging modalities. Flank tumors were started in the right flank of mice at approximately 7 weeks of age by injecting a mixture of 2×10^6 cells and Matrigel® Matrix (Corning®, Corning Inc., Corning, NY, USA). Experiments were performed in mice 4 to 8 weeks after implanting the tumors.
as §1, §2, §3

Row | Compound | p-value, average radiant efficiency of excised kidney vs SBK2-ICG [2] | p-value, average radiant efficiency of excised kidney vs Scram-CLE-ICG [2] | p-value, average radiant efficiency of excised kidney vs Scram-ICG [2] | p-value, average radiant efficiency of excised liver vs SBK2-ICG [2] | p-value, average radiant efficiency of excised liver vs Scram-CLE-ICG [2] | p-value, average radiant efficiency of excised liver vs Scram-ICG [2] | p-value, average radiant efficiency of excised spleen vs SBK2-ICG [2] | p-value, average radiant efficiency of excised spleen vs Scram-CLE-ICG [2] | p-value, average radiant efficiency of excised spleen vs Scram-ICG [2] | p-value, average radiant efficiency of excised kidney vs SBK2-CLE-ICG [2] | p-value, average radiant efficiency of excised liver vs SBK2-CLE-ICG [2] | p-value, average radiant efficiency of excised spleen vs SBK2-CLE-ICG [2] | also measured
1 | CC1(C)C(=CC=C2CCCC(C=CC3=[N+](CCCCCC(=O)[O-])c4ccc(S(=O)(=O)[O-])cc4C3(C)C)=C2Oc2ccc(S(=O)(=O)[O-])cc2)N(CCCCS(=O)(=O)[O-])c2ccc(S(=O)(=O)[O-])cc21.[Na+].[Na+].[Na+].[Na+] [IRDye® 800CW] |  |  |  |  |  |  |  |  |  |  |  |  | clearance compared to the peptide-containing agents ([1]; dye only, data not shown): cleared more slowly; overall body fluorescence compared to IRDye 800CW-labeled peptides at the same dose ([1]; dye only, data not shown): more overall fluorescence throughout the body
2 | CC(C)C[C@H](NC(=O)[C@@H](NC(=O)[C@H](CC(N)=O)NC(=O)[C@@H](NC(=O)[C@H](CCC(N)=O)NC(=O)[C@H](CCC(=O)O)NC(=O)[C@H](Cc1c[nH]c2ccccc12)NC(=O)[C@H](CC(N)=O)NC(=O)[C@H](Cc1ccccc1)NC(=O)[C@H](CC(=O)O)NC(=O)[C@H](CC(=O)O)NC(=O)CNC(=O)[C@H](CCC(=O)O)NC(=O)CNC(=O)[C@H](CO)NC(=O)CNC(=O)CNC(=O)[C@H](CO)NC(=O)CNC(=O)CNC(=O)CCCCCN1/C(=C/C=C/C=C/C=C/C2=[N+](CCCCS(=O)(=O)[O-])c3ccc4ccccc4c3C2(C)C)C(C)(C)c2c1ccc1ccccc21)C(C)C)[C@@H](C)O)C(=O)N[C@H](C(=O)N[C@@H](CCCCN)C(=O)N1CCC[C@H]1C(=O)N[C@H](C(=O)N[C@@H](CO)C(=O)N[C@@H](CC(=O)O)C(=O)O)[C@@H](C)O)[C@@H](C)O [SBK2-CLE-ICG] (X1-GGSGGSGEGDDFNWEQVNTLTKPTSD-OH) | <0.001 | 0.034 | ns | <0.001 | ns | ns | <0.001 | 0.015 | ns |  |  |  | clearance compared to SBK2-ICG ([1]; mouse, in vivo): cleared more rapidly
3 | CC(C)C[C@H](NC(=O)[C@@H](NC(=O)[C@H](CC(N)=O)NC(=O)[C@@H](NC(=O)[C@H](CCC(N)=O)NC(=O)[C@H](CCC(=O)O)NC(=O)[C@H](Cc1c[nH]c2ccccc12)NC(=O)[C@H](CC(N)=O)NC(=O)[C@H](Cc1ccccc1)NC(=O)[C@H](CC(=O)O)NC(=O)[C@H](CC(=O)O)NC(=O)CNC(=O)[C@H](CCC(=O)O)NC(=O)CNC(=O)CCCCCN1/C(=C/C=C/C=C/C=C/C2=[N+](CCCCS(=O)(=O)[O-])c3ccc4ccccc4c3C2(C)C)C(C)(C)c2c1ccc1ccccc21)C(C)C)[C@@H](C)O)C(=O)N[C@H](C(=O)N[C@@H](CCCCN)C(=O)N1CCC[C@H]1C(=O)N[C@H](C(=O)N[C@@H](CO)C(=O)N[C@@H](CC(=O)O)C(=O)O)[C@@H](C)O)[C@@H](C)O [SBK2-ICG] (X1-GEGDDFNWEQVNTLTKPTSD-OH) |  | <0.001 | <0.001 |  | <0.001 | <0.001 |  | <0.001 | <0.001 | <0.001 | <0.001 | <0.001 | 
4 | CC(C)C[C@H](NC(=O)[C@H](CC(=O)O)NC(=O)[C@H](CC(N)=O)NC(=O)[C@H](CC(=O)O)NC(=O)[C@@H](NC(=O)CNC(=O)[C@@H](NC(=O)[C@H](CCC(=O)O)NC(=O)[C@@H]1CCCN1C(=O)[C@H](CCC(N)=O)NC(=O)[C@@H](NC(=O)[C@H](Cc1ccccc1)NC(=O)CNC(=O)[C@H](CO)NC(=O)CNC(=O)CNC(=O)[C@H](CO)NC(=O)CNC(=O)CNC(=O)CCCCCN1/C(=C/C=C/C=C/C=C/C2=[N+](CCCCS(=O)(=O)[O-])c3ccc4ccccc4c3C2(C)C)C(C)(C)c2c1ccc1ccccc21)[C@@H](C)O)[C@@H](C)O)[C@@H](C)O)C(=O)N[C@@H](Cc1c[nH]c2ccccc12)C(=O)N[C@@H](CO)C(=O)N[C@H](C(=O)N[C@@H](CC(=O)O)C(=O)N[C@@H](CC(N)=O)C(=O)N[C@@H](CCC(=O)O)C(=O)N[C@@H](CCCCN)C(=O)O)C(C)C [Scram-CLE-ICG] (X1-GGSGGSGFTQPETGTDNDLWSVDNEK-OH) | <0.001 |  | ns | <0.001 |  | ns | <0.001 |  | ns | 0.034 | ns | 0.015 | 
5 | CC(C)C[C@H](NC(=O)[C@H](CC(=O)O)NC(=O)[C@H](CC(N)=O)NC(=O)[C@H](CC(=O)O)NC(=O)[C@@H](NC(=O)CNC(=O)[C@@H](NC(=O)[C@H](CCC(=O)O)NC(=O)[C@@H]1CCCN1C(=O)[C@H](CCC(N)=O)NC(=O)[C@@H](NC(=O)[C@H](Cc1ccccc1)NC(=O)CNC(=O)CCCCCN1/C(=C/C=C/C=C/C=C/C2=[N+](CCCCS(=O)(=O)[O-])c3ccc4ccccc4c3C2(C)C)C(C)(C)c2c1ccc1ccccc21)[C@@H](C)O)[C@@H](C)O)[C@@H](C)O)C(=O)N[C@@H](Cc1c[nH]c2ccccc12)C(=O)N[C@@H](CO)C(=O)N[C@H](C(=O)N[C@@H](CC(=O)O)C(=O)N[C@@H](CC(N)=O)C(=O)N[C@@H](CCC(=O)O)C(=O)N[C@@H](CCCCN)C(=O)O)C(C)C [Scram-ICG] (X1-GFTQPETGTDNDLWSVDNEK-OH) | <0.001 | ns |  | <0.001 | ns |  | <0.001 | ns |  | ns | ns | ns | clearance compared to either of the CLE-containing agents ([1]; 400 nmol/kg, 24 h): clear more slowly
6 | SBK2-TF8WS: Tide Fluor 8WS conjugated via amide to N-terminus of SBK2 peptide (SEQ ID NO: 5) ({Tide Fluor 8WS}-GEGDDFNWEQVNTLTKPTSD) |  |  |  |  |  |  |  |  |  |  |  |  | difference in average radiant efficiency in kidney, spleen, or liver vs Scram-TF8WS ([2]; 400 nmol/kg): no significant differences; tumor signal at 24 h (not specific for PTPμ) [3]: high tumor-specific signal; difference in in vivo tumor average radiant efficiency vs Scram-TF8WS ([3]; at any time out to 24 h): No significant differences; specific tumor labeling ([3]; versus Scrambled control agents): no specific tumor labeling
7 | Scram-TF8WS: Tide Fluor 8WS conjugated to N-terminus of Scrambled control peptide (SEQ ID NO: 48) ({Tide Fluor 8WS}-GFTQPETGTDNDLWSVDNEK) |  |  |  |  |  |  |  |  |  |  |  |  | tumor signal at 24 h (not specific for PTPμ) [3]: high tumor-specific signal
